According to patent US8709506B2, “Synergistic compositions for the treatment of topical viral infections” (Vitro Bio Sarl, priority 2010, dated 2014):

B1: MMP-12: purified human MMP-12 (elastase), AnaSpec (protein, UniProt P39900 106-470, looked up)
Macrophage metalloelastase: GPVWRKHYITYRINNYTPDMNREDVDYAIRKAFQVWSNVTPLKFSKINTGMADILVVFARGAHGDFHAFDGKGGILAHAFGPGSGIGGDAHFDEDEFWTTHSGGTNLFLTAVHEIGHSLGLGHSSDPKAVMFPTYKYVDINTFRLSADDIRGIQSLYGDPKENQRLPNPDNSEPALCDPNLSFDAVTTVGNKIFFFKDRFFWLKVSERPKTSVNLISSLWPTLPSGIEAAYEIEARNQVFLFKDDKYWLISNLRPEPNYPKSIHSFGFPNFVKKIDAAVFNPRFYRTYFFVDNQYWRYDERRQMMDPGYPKLITKNFQGIGPKIDAVFYSKNKYYYFFQGSNQFEYDFLLQRITKTLKSNSWFGC
B2: MMP-2: purified human MMP 2 (gelatinase A), AnaSpec (protein, UniProt P08253 110-660, looked up)
72 kDa type IV collagenase: YNFFPRKPKWDKNQITYRIIGYTPDLDPETVDDAFARAFQVWSDVTPLRFSRIHDGEADIMINFGRWEHGDGYPFDGKDGLLAHAFAPGTGVGGDSHFDDDELWTLGEGQVVRVKYGNADGEYCKFPFLFNGKEYNSCTDTGRSDGFLWCSTTYNFEKDGKYGFCPHEALFTMGGNAEGQPCKFPFRFQGTSYDSCTTEGRTDGYRWCGTTEDYDRDKKYGFCPETAMSTVGGNSEGAPCVFPFTFLGNKYESCTSAGRSDGKMWCATTANYDDDRKWGFCPDQGYSLFLVAAHEFGHAMGLEHSQDPGALMAPIYTYTKNFRLSQDDIKGIQELYGASPDIDLGTGPTPTLGPVTPEICKQDIVFDGIAQIRGEIFFFKDRFIWRTVTPRDKPMGPLLVATFWPELPEKIDAVYEAPQEEKAVFFAGNEYWIYSASTLERGYPKPLTSLGLPPDVQRVDAAFNWSKNKKTYIFAGDKFWRYNEVKKKMDPGFPKLIADAWNAIPDNLDAVVDLQGGGHSYFFKGAYYLKLENQSLKSVKFGSIKSDWLGC

What was measured:
[1] = tested on: influenza virus; type: cell-based; settings: for % cell death after 72 h TCID50 influenza virus infection: protease 0.5 μg/ml, MDCK cells, serum free medium, virus control 48.21 ± 6.77
[2] = tested on: herpes virus; type: cell-based; settings: for % cell death after 72 h TCID50 herpes virus infection: protease 0.5 μg/ml, Vero cells, serum free medium, virus control 56.0 ± 2.3

| Molecule | % increase in influenza viral growth compared to virus control [1] | % cell death after 72 h TCID50 influenza virus infection [1] [%] | % increase in herpes virus growth compared to controls [2] | % cell death after 72 h TCID50 herpes virus infection [2] [%] |
| --- | --- | --- | --- | --- |
| B1 | +1.41% | 48.89 ± 4.39 | +19.86% | 67.12 ± 5.91 |
| B2 | +49.14% | 71.90 ± 8.21 | +31.43% | 73.6 ± 6.20 |
